Biological target: LOXL3 (UniProt P58215)
Assay: Co-IP of LOXL3 with LOXL3
Settings: reference: wild type; sites S704

Chain of UniProt P58215 (P58215 whole entry S704A): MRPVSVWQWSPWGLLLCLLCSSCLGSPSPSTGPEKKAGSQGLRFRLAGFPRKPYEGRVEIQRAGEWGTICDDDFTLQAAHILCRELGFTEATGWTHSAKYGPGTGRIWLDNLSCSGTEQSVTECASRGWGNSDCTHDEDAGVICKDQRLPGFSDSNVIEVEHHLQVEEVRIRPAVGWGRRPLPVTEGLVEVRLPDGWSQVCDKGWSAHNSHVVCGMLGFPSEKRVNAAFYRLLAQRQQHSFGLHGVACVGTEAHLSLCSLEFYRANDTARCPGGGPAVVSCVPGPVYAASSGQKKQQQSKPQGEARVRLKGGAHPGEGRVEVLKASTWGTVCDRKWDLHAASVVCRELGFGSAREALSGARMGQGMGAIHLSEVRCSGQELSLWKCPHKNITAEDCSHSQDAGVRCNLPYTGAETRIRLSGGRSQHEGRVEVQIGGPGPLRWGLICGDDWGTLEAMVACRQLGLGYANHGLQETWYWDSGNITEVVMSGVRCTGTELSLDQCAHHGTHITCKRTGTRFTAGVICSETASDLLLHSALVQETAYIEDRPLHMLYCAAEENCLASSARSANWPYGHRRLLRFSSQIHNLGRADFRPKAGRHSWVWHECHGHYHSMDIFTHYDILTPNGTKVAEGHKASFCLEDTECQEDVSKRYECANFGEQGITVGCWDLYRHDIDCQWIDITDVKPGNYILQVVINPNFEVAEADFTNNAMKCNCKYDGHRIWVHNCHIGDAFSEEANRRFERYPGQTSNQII

binding against the reference: weaker
Substance: LOXL3 (from UniProt P58215) S704A

— article PMC10229567
